Reference: patent publication US20170281764A1 (JN BIOSCIENCES, published 2017)

Key:
[1] = target: T1, TIGIT-Fc fusion protein with the Q35A mutation (human); test: ELISA on captured mutant TIGIT-Fc
T1 construct: the entry already carries the mutation; also called pFCm179-Q35A product
Method: (§1) Binding of each of mouse TIG1, TIG2 and TIG3 antibodies to the TIGIT mutants was examined by ELISA. An ELISA plate was coated with 100 μl/well of goat anti-human IgG Fc-specific polyclonal antibody (Sigma-Aldrich), 1/2,000-diluted in PBS at 4° C. overnight, washed with Wash Buffer, and blocked with 200 μl/well ELISA Buffer for 20 min at room temperature. After washing with Wash Buffer, 0.5 μg/ml of transiently expressed TIGIT-Fc fusion proteins, carrying either the wild-type TIGIT or one of the six TIGIT mutants, in ELISA Buffer (100 μl/well) were applied to the ELISA plate in duplicates for incubation at room temperature for 30 min. As a negative control, culture supernatants of untransfected HEK293 cells were used. After washing with Wash Buffer, 100 μl/well of 200 ng/ml of a test antibody (TIG1, TIG2 or TIG3) in ELISA Buffer (100 μl/well) was applied. After incubating the ELISA plate for 30 min at room temperature and washing with Wash Buffer, bound antibodies were detected using 100 μl/well of HRP-conjugated goat anti-mouse kappa chain polyclonal antibody (Bethyl Laboratories, Montgomery, Tex.), 1/2,000-diluted in ELISA Buffer. After incubating the plate for 0.5 hr at room temperature and washing with Wash Buffer, color development was initiated by adding 100 μl/well of ABTS substrate (Sigma-Aldrich) and stopped with 100 μl/well of 2% oxalic acid. Absorbance was read at 405 nm.
(§2) For each of TIG1, TIG2 and TIG3, the relative binding to each TIGIT mutant was calculated in the following formula. The average absorbance with the wild type TIGIT-Fc fusion proteins [Abs A] was normalized to 100%, and the average absorbance with culture supernatants of untransfected HEK293 cells [Abs B] was normalized to 0%. The average absorbance with a mutant TIGIT-Fc fusion protein [Abs C] was normalized by the following formula: 100×([Abs C]−[Abs B])/([Abs A]−[Abs B]). […] None of the TIGIT mutants used in this assay abolished the binding of TIG2 and TIG3 to TIGIT.

[2] = target: T2, TIGIT-Fc fusion protein with the N37A mutation (human); test: ELISA on captured mutant TIGIT-Fc
T2 construct: also called pFCm179-N37A product
Method: as §1, §2

[3] = target: T3, TIGIT-Fc fusion protein with the D51A mutation (human); test: ELISA on captured mutant TIGIT-Fc
T3 construct: also called pFCm179-D51A product
Method: as §1, §2

[4] = target: T4, extracellular region of human TIGIT fused to FLAG and GPI (hTIGIT-GPI), on the surface of NS0 cells (human); test: flow cytometry, competition with hCD155-Fc for NS0-hTIGIT cells
T4 construct: The GPI signal is processed when the anchor is attached; also called NS0-hTIGIT cells
T4 chain: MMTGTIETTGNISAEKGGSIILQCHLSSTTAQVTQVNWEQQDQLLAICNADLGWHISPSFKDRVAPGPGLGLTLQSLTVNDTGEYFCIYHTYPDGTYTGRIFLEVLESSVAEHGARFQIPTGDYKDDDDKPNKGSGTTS
Method: The activity of TIG1, TIG2 and TIG3 to block the interaction between TIGIT and CD155 was analyzed by flow cytometry. NS0-hTIGIT cells were incubated with a sub-saturating concentration of hCD155-Fc in the presence (or absence) of various concentrations of an anti-TIGIT monoclonal antibody as a competitor. Detection of hCD155-Fc bound to NS0-hTIGIT cells was performed with DyLight488-labeled goat anti-human IgG, Fc-specific antibody (Jackson ImmunoResearch, West Grove, Pa.).

[5] = target: T5, human TIGIT on cells (Jurkat-TIGIT cells; human T cells, NK cells and other blood cells) (human, UniProt Q495A1 22-244); test: cell-based or functional assay
T5 sequence: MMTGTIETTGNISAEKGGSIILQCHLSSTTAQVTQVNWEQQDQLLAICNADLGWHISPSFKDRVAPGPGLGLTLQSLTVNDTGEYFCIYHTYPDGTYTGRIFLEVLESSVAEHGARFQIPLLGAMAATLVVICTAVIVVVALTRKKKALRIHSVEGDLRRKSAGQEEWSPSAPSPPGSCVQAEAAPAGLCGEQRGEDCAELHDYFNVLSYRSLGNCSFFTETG

[6] = target: TIGIT-Fc fusion protein with the E39A mutation (printed Q39A in the text) (human); test: ELISA, mutant TIGIT-Fc captured by anti-human Fc, antibody at 200 ng/ml, wild type TIGIT-Fc = 100 %
Method: as §1, §2

[7] = target: T1, TIGIT-Fc fusion protein with the Q35A …; test: as above
Method: as §1, §2

[8] = target: T6, TIGIT-Fc fusion protein with the F86A mutation (human); test: as above
T6 construct: also called pFCm179-F86A product
Method: as §1, §2

[9] = target: T7, TIGIT-Fc fusion protein with the N49A mutation (human); test: as above
T7 construct: also called pFCm179-N49A product
Method: as §1, §2

[10] = target: T2, TIGIT-Fc fusion protein with the N37A …; test: as above
Method: as §1, §2

[11] = target: T3, TIGIT-Fc fusion protein with the D51A …; test: as above
Method: as §1, §2

[12] = target: T8, extracellular region of human TIGIT fused to the Fc region of human immunoglobulin gamma-1 chain (hTIGIT-Fc) (human); test: ELISA, hybridoma screening
T8 construct: also called human TIGIT-Fc fusion protein; wild-type TIGIT-Fc
Text: Mouse antibodies secreted in culture supernatants of hybridoma cells were subjected to a series of screening to identify the antibodies with the following properties: (1) binding to purified hTIGIT-Fc fusion protein, (2) binding to NS0-hTIGIT cells, (3) non-binding to NS0 cells, (4) binding to CD3+ T cells derived from phytohemagglutinin-treated human peripheral blood mononuclear cells and (5) blocking of the binding of hCD155-Fc fusion protein to NS0-hTIGIT cells. The first property to bind to hTIGIT-Fc was tested by ELISA using HRP-conjugated goat antibodies against mouse kappa and lambda light chains (SouthernBiotech, Birmingham, Ala.) for identification of mouse anti-TIGIT antibodies. The second, third and fourth properties were examined by flow cytometry using PE-labeled goat anti-mouse gamma chain antibody (SouthernBiotech) for detection of cell-bound mouse antibodies. The fifth property was analyzed by flow cytometry as described below. […] TIG1, TIG2 and TIG3 monoclonal antibodies were purified from culture supernatant of hybridoma cells by protein A column chromatography as described above. The isotypes of TIG1, TIG2 and TIG3 are mouse IgG2b/kappa, IgG2a/kappa and IgG2a/kappa, respectively.

- binding result [1]: no binding
- binding result [2]: no binding
- binding result [3]: no binding
- IC50 [4]: 0.049 µg/mL
- Relative binding to TIGIT (%) [6]: 71.1%
- Relative binding to TIGIT (%) [7]: -0.1%
- Relative binding to TIGIT (%) [8]: 49.5%
- Relative binding to TIGIT (%) [9]: 0.5%
- Relative binding to TIGIT (%) [10]: 0.8%
- Relative binding to TIGIT (%) [11]: 1.8%
- binding result [12]: binds
B1: TIG1 mouse anti-human TIGIT monoclonal antibody (antibody, mouse IgG2b, V domains shown)
VH: DVQLVESGGGLVQPGGSRKLSCAASGFTFSNFGMHWVRQAPEKGLEWVAFISSGSSSIYYADTVKGRFTISRDNPKNTLFLQMTSLRSEDTAMYYCARMRLDYYAMDYWGQGTSVTVSS
VL: DVQITQSPSYLAASPGETITINCRASKSISKYLAWYQEKPGKTNKLLIYSGSTLQSGIPSRFSGSGSGTDFTLTISSLEPEDFAMYYCQQHNEYPWTFGGGTKLEIK
notes: also called anti-TIGIT antibody (TIG1)
- enhancement of NK cell mediated natural cytotoxicity of K562 cells [5]: 2 fold
